Read-outs that look alike come from different tables or passages of the source.
Key:
[1] = biological target: T1, BoNT/A HC, recombinant binding domain (C-terminal domain of the heavy chain) of botulinum neurotoxin type A (Clostridium botulinum, UniProt P0DPI0 860-1296)
[2] = biological target: T1, BoNT/A HC, recombinant binding domain …; assay: SPR BIAcore, IgG on chip, BoNT/A HC in flow
[3] = biological target: T1, BoNT/A HC, recombinant binding domain …; assay: SPR BIAcore, Hc on chip, scFv in flow
[4] = biological target: T1, BoNT/A HC, recombinant binding domain …; assay: SPR BIAcore, scFv column of Table 6
[5] = biological target: T1, BoNT/A HC, recombinant binding domain …; assay: SPR BIAcore, HC on chip, scFv in flow
[6] = biological target: BoNT/A HC, recombinant binding domain (C-terminal domain of the heavy chain) of botulinum neurotoxin type A (Clostridium botulinum, UniProt P0DPI0 860-1296); assay: SPR BIAcore, HC on chip, scFv in flow; remark: listed apart in the source

B1: 3D12 IgG (fully human IgG) (antibody, V domains shown)
VH: QVQLVQSGGGVVHPGRSLKLSCAGSGFTFSDYDMHWVRQAPGKGLEWVAVMWFDGTEKYSAESVKGRFTISRDNSKNTLFLQMNSLRADDTAVYYCAREPDWLLWGDRGALDVWGQGTTVTVSS
VL: DIVMTQSPSTLSASVGDRVTITCRASQSISSWLAWYQQKPGKAPKLLMYEASSLESGVPSRFSGSGSGTEFTLTISSLQPDDFAAYYCQHYNTYPYTFGQGTKLEIK
Kd [1]: 0.55 nM
Kd [2]: 0.0562 nM
koff [2]: 0.000127 s⁻¹
kon [2]: 2.26e+06 M⁻¹ s⁻¹

B2: S25 IgG (chimeric IgG, murine V domains, human C domains) (antibody, V domains shown)
VH: QVKLQQSGAELVRPGASVKLSCKASGYSLTSYWMNWVKQRPQGGLEWIGNIHPSDSDTRFNQKFEDKATLTVDTSSSTAYMQLSSPTSEDSAVYYCARGLYNGFWYFDVWGQGTTVTVSS
VL: DIELTQSPALMAASPGEKVIITCSVSSSISSSNLHWYQQKSGTSPKPWIYGTSNLASQVPVRFSGSGSGTSYSLTISSMEAEDAATYYCQQWSSYPLTFGAGTKLEIKR
Kd [2]: 3.9 nM
koff [2]: 0.0057 s⁻¹
kon [2]: 1.46e+06 M⁻¹ s⁻¹

B3: scFv 1F3 (scFv)
scFv: EVQLQQSGARLVKPGASVKLSCKASGYTFTSFWMHWVKQRPGRGLEWIGRLDPNSGETKYNEKFKSKATLTVDKPSSTAYMELSSLTSEDSAVYYCAREAYGYWNFDVWGTGTTVTVSSGGGGSGGGGSGGGGSDIELTQSPASMSASPGEKVTMTCRATSSVSSSYLHWYQQKSGASPKLWIYSASNLASGVPSRFSGSGSGTSYLSTISSVEAEDAATYYCQQYIGYPYTFGGGTKLEIKR
Kd [3]: 12 nM
koff [3]: 0.011 s⁻¹
kon [3]: 920000 M⁻¹ s⁻¹

B4: scFv C25 (scFv)
scFv: QVQLQESGGGLVKPGGSLKLSCAASGFTFSDYYMYWVRQTPEKRLEWVATISDGGSYTYYPDSVKGRFTISRDNAKNNLYLQMSSLKSEDTAMYYCSRYRYDDAMDYWGQGTTVTVSSGGGGSGGGGSGGGGSDIELTQSPASLAVSLGQRATISCRASESVDSYGHSFMQWYQQKPGQPPKLLIYRASNLEPGIPARFSGSGSGTDFTLTINPVEADDVATYYCQQSNEDPFTFGSGTKLEIKR
Kd [3]: 1.1 nM
koff [3]: 0.00033 s⁻¹
kon [3]: 300000 M⁻¹ s⁻¹
Kd [4]: 1.1 nM
koff [4]: 0.00033 s⁻¹
kon [4]: 300000 M⁻¹ s⁻¹
Kd [5]: 1.1 nM
koff [5]: 0.00033 s⁻¹
kon [5]: 300000 M⁻¹ s⁻¹

B5: scFv 3D12 (human, immune library) (scFv)
scFv: QVQLVQSGGGVVHPGRSLKLSCAGSGFTFSDYDMHWVRQAPGKGLEWVAVMWFDGTEKYSAESVKGRFTISRDNSKNTLFLQMNSLRADDTAVYYCAREPDWLLWGDRGALDVWGQGTTVTVSSGGGGSGGGGSGGGGSDIVMTQSPSTLSASVGDRVTITCRASQSISSWLAWYQQKPGKAPKLLMYEASSLESGVPSRFSGSGSGTEFTLTISSLQPDDFAAYYCQHYNTYPYTFGQGTKLEIK
Kd [4]: 36.9 nM
koff [4]: 0.0005 s⁻¹
kon [4]: 13000 M⁻¹ s⁻¹
Kd [5]: 36.9 nM
koff [5]: 0.0005 s⁻¹
kon [5]: 13000 M⁻¹ s⁻¹

B6: scFv S25 (scFv)
scFv: QVKLQQSGAELVRPGASVKLSCKASGYSLTSYWMNWVKQRPQGGLEWIGNIHPSDSDTRFNQKFEDKATLTVDTSSSTAYMQLSSPTSEDSAVYYCARGLYNGFWYFDVWGQGTTVTVSSGGGGSGGGGSGGGGSDIELTQSPALMAASPGEKVIITCSVSSSISSSNLHWYQQKSGTSPKPWIYGTSNLASQVPVRFSGSGSGTSYSLTISSMEAEDAATYYCQQWSSYPLTFGAGTKLEIKR
Kd [3]: 73 nM
koff [3]: 0.00082 s⁻¹
kon [3]: 11000 M⁻¹ s⁻¹
Kd [4]: 73 nM
koff [4]: 0.00081 s⁻¹
kon [4]: 11000 M⁻¹ s⁻¹
Kd [5]: 73 nM
koff [5]: 0.00082 s⁻¹
kon [5]: 11000 M⁻¹ s⁻¹

B7: scFv 2B6 (human, non-immune library, Tables 9 and 10) (scFv)
chain: VKLVESGPGLVKPSQSLSLTCTVTGYSITSDYAWNWIRQFPGNKLEWMGYINYDGSNNYNPSLKNRISITRDTSKNQFFLKLNSVTSEDTATYYCARAGDGYYVDWYFDVWGTGTTVIVSSGGGGSGGGGSGGGGSYIELTQSPASLAVSLGQRATTSCRASESVDSYGNSFMHWYQQKPGQPPKLLIYLASNLESGVPARFSGSGSRTDFTLTIDPVEADDAATYYCQQNNEDPYTFGGGTKLEIKS
Kd [6]: 71.5 nM
koff [6]: 0.0078 s⁻¹
kon [6]: 109000 M⁻¹ s⁻¹

B8: scFv C39 (scFv)
scFv: QVQLQESGGGSVKPGGSLKLSCAASGFTFSDYYMSWVRQTPEKRLEWVATISDGGSYTYYPDSVKGRFTISRDNAKNNLYLQMSSLKSEDTAIYYCVRYRYDEGLDYWGQGTTVTVSSGGGGSGGGGSGGGGSDIELTQSPASLAVSLGRRATISCRASESVDSYGHSFMHWYQQKPGQPPKLLIYLASNLESGVPARFSGSGSRTDFTLTIDPVEADDAATYYCQQNNEDPYTFGGGTKLEIKR
Kd [3]: 2.3 nM
koff [3]: 0.00032 s⁻¹
kon [3]: 140000 M⁻¹ s⁻¹

B9: C25 IgG (chimeric IgG, murine V domains, human C domains) (antibody, V domains shown)
VH: QVQLQESGGGLVKPGGSLKLSCAASGFTFSDYYMYWVRQTPEKRLEWVATISDGGSYTYYPDSVKGRFTISRDNAKNNLYLQMSSLKSEDTAMYYCSRYRYDDAMDYWGQGTTVTVSS
VL: DIELTQSPASLAVSLGQRATISCRASESVDSYGHSFMQWYQQKPGQPPKLLIYRASNLEPGIPARFSGSGSGTDFTLTINPVEADDVATYYCQQSNEDPFTFGSGTKLEIKR
Kd [1]: 11 nM
Kd [2]: 1.69 nM
koff [2]: 0.00224 s⁻¹
kon [2]: 1.32e+06 M⁻¹ s⁻¹

Reference: US20040175385A1 (University of California, published 2004)
